Results published in patent US20260132208A1 (DOMAIN THERAPEUTICS, published 2026).
Changes are numbered by the printed parent chain. Several values for one entry are separate records, joined by “and”; a condition that tells them apart may be missing. Equal values may be shown once.

B1: Ref #1 (antibody, human IgG1, V domains shown)
VH: EVQLLESGGGLVQPGGSLRLSCAASGFTFSSYGMHWVRQAPGKGLEWVSAINWNGGSTGYADSVKGRFTISRDNSKNTLYLQMNSLRAEDTAVYYCARGHHSGYDGRFFDYWGQGTLVTVSS
VL: QSVLTQPPSVSGAPGQRVTISCTGSSSNIGAGYNVHWYQQLPGTAPKLLIYTNNRRPSGVPDRFSGSKSGTSASLAISGLRSEDEADYYCAAWDASLSGWVFGGGTKLTVL
notes: Benchmark; cloned into vectors encoding heavy and light chains of human IgG1, produced in CHO; also called TPP-21360 of WO 2021/260210
B2: anti-CCR8 mAb 1-18 (antibody, V domains shown)
VH: QVQVQQSGAELARPGASVKMSCKASGYTFTTYAMHWVKQRPGQGLEWIGHINPSSGYSNYNQKFKDKATLTADKSSSTAYMQLSSLTSEDSAVYYCARSEVRRGYFDVWGAGTTVTVSS
VL: DIQMTQTTSSLSASLGDRVTISCRTSQDIRNYLNWYQQKPDGTVKLLISYTSRLHSGVPSRFSGSGSGTDYSLTISNLEQEDFATYFCQQGNTLPPTFGGGTRVEIK
notes: Murine hybridoma mAb
B3: anti-CCR8 mAb 1-3 (antibody, V domains shown)
VH: KVQLQQSGPELVKPGASVKISCKTSGYTFTEYTIHWVQQIHGKSPEWIGGINPNGDTRYDQKFKGKATLTIDKSSSTAYMELRSLTSEDSAVYYCARVARFYGISPYAMDYWGQGTSVTVSS
VL: DVVMTQTPLSLPVSLGDQASISCRCTQSLLHSNGDTYLHWYLQKPGQSPNLLIYKVSNRFSGVPDRFSGSGSGTDFTLKINRVEAEDLGVYFCSQSTHVPYTFGGGTNLEIK
notes: Murine hybridoma mAb
B4: anti-CCR8 mAb 1-5 (antibody, V domains shown)
VH: QVQLKESGPGLVAPSQSLSITCTVSGLSMNDYVVTWIRQPPGKGLEWLGVIWGGGNTYYNSDLKSRLSITKDNSKSQVFFKMSSLQTDDTAVYYCARRHRDYALDYWGQGISVTVSS
VL: B3 VL with C25S, T26S, L30V, H31Y, D35N, N50K, N81S, H98Y, Y101P, N108K
notes: Murine hybridoma mAb
B5: anti-CCR8 mAb 1-6 (antibody, V domains shown)
VH: EVQLQQSGPELLKPGTSVKISCTTSGYTFSDYTLHWVKQSHGKSLEWIGGITPKNGDTRYDPRFKDKATLTIDKSSSAAYMELRSLTSEDSAVYYCARVARFYGVSPYAMDYWGQGASVTVSS
VL: B3 VL with N50K, K79E, N81T, S96T, N108K
notes: Murine hybridoma mAb
B6: anti-CCR8 mAb 1-28 (antibody, human IgG1, kappa, V domains shown)
VH: EVQLVESGGGLVQPTGSLRLSCAASGFTFNAYAMNWVRQAPGKGLEWVARIRSKSNDYATYYGDSVKDRFTISRDDSQSMLYLQMNNLKTEDTAMYYCVRGREAYYRYDGGYYAMDYWGQGTSVTVSS
VL: DIVMTQAAPSVSVTPGESVSISCTSSKSLLHSNGNTYLYWFLQRPGQSPQLLIYRMSNLASGVPDRFSGSGSGTAFTLRISRVEAEDVGVYYCMQHREYPFTFGSGTKLEIKR

These binders were tested against T1, human CCR8 with a SNAP-tag at the N-terminus (human, UniProt P51685 1-355, SNAP-tag labelled covalently with Lumi4-Terbium) (assay: cell-based or functional assay).

Binder	% hCCR8 internalization with CCL1 300 nM, mAb 1 µg/ml (HTRF)	% hCCR8 internalization with CCL1 300 nM, mAb 10 µg/ml (HTRF)
B1	126%	111%

Each binder was assayed against T2, pm6 (Y16 and Y17 sulfated; Y15 not sulfated) (assay: ELISA on coated peptide [cont.]).
T2 construct: also called sulfated CCR8 N-terminal peptide pm6
Summary of the method: (§1)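 CCR8-related peptides were coated at 500 ng/ml in carbonate/bicarbonate buffer, and each anti-CCR8 mAb was applied at 1 μg/mL and then at a 1/10 dilution. After 90 min at room temperature and washing, TMB was developed for 15 min and optical density was taken as mAb reactivity.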

T2 sequence (peptide, as listed by the source): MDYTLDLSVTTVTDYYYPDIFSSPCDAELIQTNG

Binder	binding result
B2	binds
B3	binds
B4	binds
B5	binds

These binders were tested against T3, pm5 (Y15 and Y17 sulfated; Y16 not sulfated) (assay: ELISA on coated peptide [cont.]).
T3 construct: also called sulfated CCR8 N-terminal peptide pm5
Summary of the method: as §1

T3 sequence (peptide, as listed by the source): as above

Binder	binding result
B2	binds
B3	binds
B4	binds
B5	binds

What follows are binders tested against T4, pm1 (sulfated tyrosine(s) among Y15, Y16, Y17; which ones is not told (the underlining of Table 1 is lost in the text)) (assay: ELISA on coated peptide [cont.]).
T4 construct: also called sulfated CCR8 N-terminal peptide pm1
Summary of the method: as §1

T4 sequence (peptide, as listed by the source): as above

Binder	binding result
B2	binds
B3	binds
B4	binds
B5	binds

Each binder was assayed against T5, pm8 (Y15, Y16 and Y17 sulfated) (assay: ELISA on coated peptide [cont.]).
T5 construct: also called sulfated CCR8 N-terminal peptide pm8
Summary of the method: as §1

T5 sequence (peptide, as listed by the source): as above

Binder	binding result
B2	binds
B3	binds
B4	binds
B5	binds

What follows are binders tested against T6, pm4 (sulfated tyrosine(s) among Y15, Y16, Y17; which ones is not told (the underlining of Table 1 is lost in the text)) (assay: ELISA on coated peptide [cont.]).
T6 construct: also called sulfated CCR8 N-terminal peptide pm4
Summary of the method: as §1

T6 sequence (peptide, as listed by the source): as above

Binder	binding result
B2	binds
B3	binds
B5	binds

What follows are binders tested against T7, pm3 (Y17 sulfated; Y15 and Y16 not sulfated) (assay: ELISA on coated peptide [cont.]).
T7 construct: also called sulfated CCR8 N-terminal peptide pm3
Summary of the method: as §1

T7 sequence (peptide, as listed by the source): as above

Binder	binding result
B2	binds
B3	binds
B4	binds
B5	binds

The binders below were run against T8, pm2 (sulfated tyrosine(s) among Y15, Y16, Y17; which ones is not told (the underlining of Table 1 is lost in the text)) (assay: ELISA on coated peptide [cont.]).
T8 construct: also called sulfated CCR8 N-terminal peptide pm2
Summary of the method: as §1

T8 sequence (peptide, as listed by the source): as above

Binder	binding result
B2	binds
B3	binds
B4	binds
B5	binds

What follows are binders tested against T9, pwt1 (none (unmodified peptide)) (assay: ELISA on coated peptide [cont.]).
T9 construct: also called unmodified CCR8 N-terminal peptide
Summary of the method: as §1

T9 sequence (peptide, as listed by the source): as above

Binder	binding result
B2	binds
B3	binds
B4	binds
B5	binds

Each binder was assayed against T10, human CCR8 (human, UniProt P51685 1-355) (assay: cell-based or functional assay).

Binder	IC50 of CCL1-induced hCCR8 Gi2 signaling (BRET, HEK-293)
B2	0.004 µg/mL and 0.029 nM
B1	0.101 µg/mL and 0.675 nM
B3	0.069 µg/mL and 0.462 nM
B4	0.143 µg/mL and 0.954 nM
B5	0.049 µg/mL and 0.328 nM

Target: T10, human CCR8
Test: cell-based or functional assay
Remark: another data set of the same source

Binder	ADCC % max lysis, HUT78 targets, NK donor 1	ADCC % max lysis, HUT78 targets, NK donor 2	ADCC EC50, HUT78 targets, NK donor 1	ADCC EC50, HUT78 targets, NK donor 2
B6	31%	26%	73.3 pM	90.4 pM

Target: T10, human CCR8
Test: cell-based or functional assay
Remark: another data set of the same source

Binder	extrapolated top plateau of hCCL1 curve with 5 µg/mL mAb, protocol #3
B2	948 % of hCCL1 (100 nM)
B3	663 % of hCCL1 (100 nM)
B4	133 % of hCCL1 (100 nM)
B5	667000 % of hCCL1 (100 nM)

Each binder was assayed against T1, human CCR8 with a SNAP-tag at the … (assay: HTRF Tag-lite, inhibition of hCCL1-AF647 binding to SNAP-hCCR8 on HEK-293 cells).
Procedure: The inhibition of CCL1 binding to hCCR8 was evaluated with the Tag-Lite® technology from Cisbio (Revvity). Human CCR8 is engineered with a SNAP-tag at the N-terminus of the GPCR. hCCR8 SNAP-tag is transiently transfected on HEK-293 cell line using FuGene® (Promega, Madison, WI, USA). 48 hours after transfection, cells are labeled with the substrate Lumi4-Terbium® (Cisbio, Codolet, France) which covalently reacts with the SNAP-tag, for 1 h at 37° C. Thawed or freshly labeled cells are plated in a 384 low volume white plate (GREINER Bio-One, Courtaboeuf, France) (10000 cells/well/10 μl). […] The Kd was previously obtained in a saturation binding assay on the same cells. […] The plate is next incubated at 21° C. for 2 h. Detection of HTRF signal is performed on the multiplate reader EnVision (PerkinElmer, Waltham, MA, USA). The HTRF (665/620) ratio is calculated by EnVision software, the data exported are considered as the total binding. The specific binding is calculated then by subtracting the non-specific signal from the total binding. The Ki and IC₅₀ are calculated using the “One site-Fit Ki” and “One site-FitlogIC50” from GraphPad Prism 9 (Graphpad Software, San Diego, CA, USA), respectively.

Binder	IC50	Ki
B1	0.45 µg/mL	0.23 µg/mL

Target: T10, human CCR8
Test: cell-based or functional assay
Remark: another data set of the same source

Binder	IC50 of CCL1-induced hCCR8 Gi2 signaling (BRET), pH 6.5	IC50 of CCL1-induced hCCR8 Gi2 signaling (BRET), pH 7.4
B3	0.051 µg/ml and 0.34 nM	0.059 µg/ml and 0.396 nM
B4	0.414 µg/ml and 2.76 nM	0.359 µg/ml and 2.4 nM
B5	0.044 µg/ml and 0.292 nM	0.061 µg/ml and 0.405 nM

Target: T10, human CCR8
Test: cell-based or functional assay
Remark: another data set of the same source

Binder	residual hCCL1 (100 nM) Gi2 response, protocol #2, mAb 0.08 µg/mL	residual hCCL1 (100 nM) Gi2 response, protocol #2, mAb 0.4 µg/mL	residual hCCL1 (100 nM) Gi2 response, protocol #2, mAb 10 µg/mL	residual hCCL1 (100 nM) Gi2 response, protocol #3, mAb 0.05 µg/mL	residual hCCL1 (100 nM) Gi2 response, protocol #3, mAb 0.5 µg/mL	residual hCCL1 (100 nM) Gi2 response, protocol #3, mAb 5 µg/mL
B2	52%	68%	53%	76%	62%	59%
B3	101%	93%	100%	92%	81%	73%
B4	99%	97%	97%	99%	84%	75%
B5	79%	38%	17%	102%	64%	47%

What follows are binders tested against T10, human CCR8 (assay: flow cytometry, hCCR8-transfected CHO-K1 cells).
Summary of the method: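 Antibody incubation ran 30 min at 4° C, followed by fluorescent anti-mouse or anti-human IgG secondary for 30 min at 4° C. Isotype-matched mAbs served as nonspecific-binding controls.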

Binder	% positive cells	MFI fold change to isotype ctrl
B2	77%	9.2 fold
B1	75.1%	–
B3	85.7%	9.8 fold
B4	85.2%	11.9 fold
B5	81.1%	10.7 fold

What follows are binders tested against T10, human CCR8 (assay: flow cytometry, inhibition of hCCL1-AF647 (10 nM) binding to hCCR8-CHO cells).
Summary of the method: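 hCCR8-transfected CHO cells preincubated 30 min at 4 °C with anti-CCR8 mAb (8 concentrations, top 10 μg/mL, 1/3 dilutions), washed, then exposed to labelled CCL1. Bound CCL1 quantified by flow cytometry; IC₅₀ of binding blockade from sigmoidal variable-slope fit.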

Binder	IC50
B2	0.22 µg/mL and 1.46 nM
B1	0.65 µg/mL
B3	1.29 µg/mL and 8.62 nM
B4	15.2 nM and 2.65 µg/mL
B5	1.3 µg/mL and 8.71 nM
